Test results as given in patent US20090036382A1, “TGF-Beta Modulators and Use Thereof” (Universita' Degli Studi Di Padova, priority 2006, published 2009).

B1: emilin-1: emilin family extracellular matrix protein carrying an EMI domain, GenBank NP—008977; expressed from pCS2 vector by transfection (protein)
chain: ASYPPRGFSLYTGSSGALSPGGPQAQIAPRPASRHRNWCAYVVTRTVSCVLEDGVETYVKYQPCAWGQPQCPQSIMYRRFLRPRYRVAYKTVTDMEWRCCQGYGGDDCAESPAPALGPASSTPRPLARPARPNLSGSSAGSPLSGLGGEGPGESEKVQQLEEQVQSLTKELQGLRGVLQGLSGRLAEDVQRAVETAFNGRQQPADAAARPGVHETLNEIQHQLQLLDTRVSTHDQELGHLNNHHGGSSSSGGSRAPAPASAPPGPSEELLRQLEQRLQESCSVCLAGLDGFRRQQQEDRERLRAMEKLLASVEERQRHLAGLAVGRRPPQECCSPELGRRLAELERRLDVVAGSVTVLSGRRGTELGGAAGQGGHPPGYTSLASRLSRLEDRFNSTLGPSEEQEESWPGAPGGLSHWLPAARGRLEQLGGLLANVSGELGGRLDLLEEQVAGAMQACGQLCSGAPGEQDSQVSEILSALERRVLDSEGQLRLVGSGLHTVEAAGEARQATLEGLQEVVGRLQDRVDAQDETAAEFTLRLNLTAARLGQLEGLLQAHGDEGCGACGGVQEELGRLRDGVERCSCPLLPPRGPGAGPGVGGPSRGPLDGFSVFGGSSGSALQALQGELSEVILSFSSLNDSLNELQTTVEGQGADLADLGATKDRIISEINRLQQEATEHATESEERFRGLEEGQAQAGQCPSLEGRLGRLEGVCERLDTVAGGLQGLREGLSRHVAGLWAGLRETNTTSQMQAALLEKLVGGQAGLGRRLGALNSSLQLLEDRLHQLSLKDLTGPAGEAGPPGPPGLQGPPGPAGPPGSPGKDGQEGPIGPPGPQGEQGVEGAPAAPVPQVAFSAALSLPRSEPGTVPFDRVLLNDGGYYDPETGVFTAPLAGRYLLSAVLTGHRHEKVEAVLSRSNQGVARVDSGGYEPEGLENKPVAESQPSPGTLGVFSLILPLQAGDTVCVDLVMGQLAHSEEPLTIFSGALLYGDPELEHA

Legend:
pro TGF-β1 processing = biological target: T1, pro TGF-β1 processing (Homo sapiens, UniProt P01137); test: Western blot of pro TGF-β1 conversion to LAP and mature TGF-β1 in transfected HEK293T cells; assay type: cell-based; details: for Intensity of the band corresponding to mature TGF-β1 / Precursor (pro TGF-β) band: HEK293T supernatant, anti-TGF-β1 Western-blot, emilin-1 cotransfected, peptide at 100 μM; for Intensity of the band corresponding to mature TGF-β1: FIG. 5A; for Precursor (pro TGF-β) band: FIG. 5A lanes 2 and 3
T1 construct: Flag; expressed in transfected cells; host or cells: HEK293T (A6); mouse embryo fibroblasts (A8)
Excerpt: (§1) • The construct for emilin 1 expression was engineered in pCS2 vector (Rupp R. A. et al., 1994, Genes Dev 8, 1311-1323) (for a physical map of the vector, see the site faculty.washington.edu/rtmoon/pcs2+.html) as described (Zanetti M. et al., 2004, Mol Cell Biol 24, 638-650); the vector used for proTGF-β expression in MEF and HEK293T cells is pCDNA3.1 (Invitrogen). Vectors containing the coding sequence for human pro TGF-β are described in Young and Murphy-Ullrich, 2004 (Young and Murphy-Ullrich, 2004, J Biol Chem 279, 38032-38039). The human pro TGF-β cDNA sequence is reported in the data bank (NP_000660; protein 000651). • The vector for Furin/SPC 1 expression is pCDNA3.1 (Invitrogen) • p15 and CAGA 12 promoter fragments are described in Jonk L. J. et al., 1998, J Biol Chem 273, 21145-21152 […]. • Constructs containing Flag sequences are described in Young G. D and Murphy-Ullrich J E, 2004, J Biol Chem 279, 38032-38039. • Constructs containing the Flag epitope (e.g. Flag-EMI-domain-GPI) were prepared as described in Chubet R G et al. Biotechniques 1996; 20(1):136-141 and detected by anti-Flag antibody (Kodak Inc.). • Constructs containing the GPI anchor were prepared as described in the Manual “Current Protocols in Cell Biology” Howard R. Petty Wayne State University, Detroit, Mich.; Juan S. Bonifacino, Mary Dasso, Joe B. Harford, Jennifer Lippincott-Schwartz, and Kenneth M. Yamada (eds.), Copyright C 2003 John Wiley & Sons, Inc. (GPI-anchor). In the construct Flag-EMI domain-GPI, the Flag sequence was inserted at the N-terminus after the signal peptide, while the GPI-anchor sequence was placed at the COOH-terminal end. • The construct emilin 1-KDEL was obtained by inserting the KDEL coding sequence described by Munro S., and Pelham, H. R., 1987, Cell 48, 899-907 upstream the emilin 1 STOP codon. • The construct containing the type II TGF-β receptor with HA epitope was described in Wrana J. L. et al., 1994, Nature 370, 341-347. • supplier of the drugs used: SP600125 (Calbiochem), SB431542 (Tocris). • Purified recombinant LAP and TGF-β1 proteins were purchased from (R&D Systems)
To verify whether emilin or its EMI domain inhibit TGF-β or its precursor, HEK293T cells were cotransfected with plasmids driving the expression of pro TGF-β1 (fused to the FLAG-domain, even though the antibody used were directed at LAP and TGF-β proteins) and emilin-1 (or EMI-domain). […] The anti-Flag antibody used was obtained from Kodak Inc; for the preparation of Flag constructs, see Younjg and Murphy-Ullrich (Young and Murphy-Ullrich, 2004).
As reported in the summary scheme above FIG. 5A, HEK293T cells were transfected with the plasmid encoding pro TGF-β1 (lane 1) and cotransfected with emilin-1 (lane 3) or treated with decanoyl-RVKR-CMK peptide (Decanoyl-Arg-Val-Lys-Arg-chloromethylketone, Alexis Corporation, Lausen, Switzerland) (lane 2) at a concentration of 100 μM. The peptide is an irreversible and competitive inhibitor of furin proprotein convertase and of other SPC family members (Proprotein Convertase); in addition, it inhibits pro-MMP2 dependent furin activation. The supernatant was then loaded on SDS-PAGE and detected by Western-blot with anti-TGF-β1 antibody. […] An increase of the precursor band in lanes 2 and 3 is […] to the decrease of TGF-β. Therefore it can be concluded that this assay detects an effect of emilin-1 on TGF-β1 processing that is similar to the effect of Furin inhibitors.

pro TGF-β1 [1] = test: Western blot of culture medium of MEF (-/- or +/+) transfected with Flag-proTGF-β1; assay type: cell-based, mouse; details: anti-Flag / anti-LAP, FIG. 5C
Procedure: In a subsequent experiment, Mouse Embryo Fibroblasts (MEF) derived from ko (−/−) or wild type (+/+) mice were transfected with a plasmid encoding Flag-proTGF-β1; the Furin inhibitor decanoyl-RVKR-CMK was added to the indicated samples. The culture medium was then subjected to western blotting with anti-Flag (FIG. 5C, upper inset) or anti-LAP (middle inset) antibody. […] To control the expression levels, western blot (in the lower inset) with an anti-β gal antibody was developed instead.

pro TGF-β processing = test: Cell-mixing experiment, responder (CAGA12-lux) and stimulator (proTGF-β) HEK293T cells; assay type: cell-based; details: emilin 1 cotransfected in S cells or only in R cells; FIG. 6A
Procedure: To determine where emilin and pro TGF-β interact (whether intracellularly or extracellularly), two types of HEK293T cells, responder (R) and stimulator (S), were prepared by transfecting the CAGA12-lux plasmid in the former and of the proTGF-β coding plasmid in the latter cells. Therefore, R cells respond to TGF-β by activating the luciferase reporter gene, while S cells produce TGF-β and can stimulate the former cells only if TGF-β is secreted. To determine where emilin-1 blocks TGF-β processing, R or S cells were cotransfected with the emilin 1 coding plasmid, and this transfection is indicated with the initial +E under the corresponding column bar in FIG. 6A.
To be able to compare the results obtained under the various conditions, all cells were cotransfected also with the CMV-lacZ vector. Mock refers to cells transfected with CMV-lacZ plasmid alone. […] Therefore, the inhibition of pro TGF-β processing by emilin 1 occurs in the extracellular compartment.

mature TGF-β1 = test: CAGA12-lux luciferase reporter in HEK293T cells treated with recombinant TGF-β1; assay type: cell-based; details: 5 ng/ml recombinant TGF-β1, expression vector 500 ng, FIG. 2B
Procedure: (§2) To verify how emilin or the EMI domain can contrast TGF-β1 activity independently from receptor binding, HEK293T cells were transfected with a construct coding luciferase placed under control of a TGF-β activated promoter: CAGA12-lux (Jonk et al., 1998) alone or in combination with a emilin1 expression vector (500 ng) as shown in FIG. 2B. After transfection, cells were treated (black bar) or not treated (white bar) with 5 ng/ml recombinant TGF-1 (lanes 1 and 2). Column bars from 3 to 6 report luciferase expression values in experiments with cells co-transfected with the expression vector for emilin1 (or EMI-domain or emilin1ΔEMI) alone (white bars) or in combination with the vector encoding pro TGF-β1 (black bars). Values show the mean±st. dev.

pro TGF-β1 [2] = test: CAGA12-lux luciferase reporter in HEK293T cells co-transfected with pro TGF-β1 vector; assay type: cell-based, human
Excerpt: as §1, §2
As further validation of the above observations, HEK293T cells were cotransfected with expression plasmids carrying the cDNAs shown in the summary scheme above the figure, along with CAGA12-lux and CMV-lacZ constructs, and luciferase expression levels were measured.

pro TGF-β = biological target: T2, pro TGF-β (Homo sapiens, UniProt P01137); test: Co-immunoprecipitation / Western blot of EMI domain or emilin1 with pro TGF-β in HEK293T cells; assay type: binding; details: HEK293T cell extracts or culture medium; anti-Flag / anti-LAP IP; FIG. 4A-4C
T2 construct: expressed in transfected cells; host or cells: HEK293T
Excerpt: • The construct for emilin 1 expression was engineered in pCS2 vector (Rupp R. A. et al., 1994, Genes Dev 8, 1311-1323) (for a physical map of the vector, see the site faculty.washington.edu/rtmoon/pcs2+.html) as described (Zanetti M. et al., 2004, Mol Cell Biol 24, 638-650); the vector used for proTGF-β expression in MEF and HEK293T cells is pCDNA3.1 (Invitrogen). Vectors containing the coding sequence for human pro TGF-β are described in Young and Murphy-Ullrich, 2004 (Young and Murphy-Ullrich, 2004, J Biol Chem 279, 38032-38039). […]

T1 sequence (P01137 30-390): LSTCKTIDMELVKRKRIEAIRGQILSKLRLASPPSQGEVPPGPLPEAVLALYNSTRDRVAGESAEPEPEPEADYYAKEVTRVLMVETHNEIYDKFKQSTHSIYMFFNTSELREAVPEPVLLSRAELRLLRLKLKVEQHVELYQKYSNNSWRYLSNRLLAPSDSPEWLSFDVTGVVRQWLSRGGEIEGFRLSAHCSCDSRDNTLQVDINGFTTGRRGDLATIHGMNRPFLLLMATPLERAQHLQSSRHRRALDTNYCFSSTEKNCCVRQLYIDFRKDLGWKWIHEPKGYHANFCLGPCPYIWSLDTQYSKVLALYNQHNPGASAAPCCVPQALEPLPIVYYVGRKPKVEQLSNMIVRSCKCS
T2 sequence (P01137 30-390): as above

| Molecule | Intensity of the band corresponding to mature TGF-β1 (pro TGF-β1 processing) | Precursor (pro TGF-β) band (pro TGF-β1 processing) | pro TGF-β1 levels in culture medium (pro TGF-β1 [1]) | Activation of CAGA12-lux reporter on mixing R and S cells (pro TGF-β processing) | Conversion of pro TGF-β1 to LAP and mature TGF-β1 (band intensity) (pro TGF-β1 processing; HEK293T cotransfected, cell extracts anti-LAP, supernatants anti-TGF-β1, FIG. 4D) | Effect on luciferase expression induced by mature TGF-β (mature TGF-β1) | Luciferase expression stimulated by transfected pro TGF-β (pro TGF-β1 [2]; CAGA12-lux and CMV-lacZ, FIG. 6C) | Effect on luciferase expression induced by pro TGF-β1 (pro TGF-β1 [2]; CAGA12-lux, co-transfection with pro TGF-β1 vector, FIG. 2B, 2C) | Interaction with pro TGF-β (co-immunoprecipitation) (pro TGF-β) |
| --- | --- | --- | --- | --- | --- | --- | --- | --- | --- |
| Decanoyl-Arg-Val-Lys-Arg-chloromethylketone [decanoyl-RVKR-CMK, reference compound] | decreases | increase | results in increased pro TGF-β1 levels | – | – | – | – | – | – |
| B1 | decreases | increase | – | inhibits activation of the reporter construct | inhibit the conversion of pro TGF-β1 | does not antagonize mature TGF-β | inhibits the stimulating action of transfected pro TGF-β | inhibits pro TGF-β | co-precipitates |
